Target: α-NAC subunit of C. elegans NAC (C. elegans)
Assay: cross-linking; BS3 (d0/d4) at 20- or 50-fold molar excess, 20 uM NAC alone or + 20 uM substrate, 10 mM sodium phosphate pH 7.0, room temperature 1 h; SDS-PAGE, in-gel tryptic digest, LC-MS/MS

stoichiometry N: 1
B1: β-NAC subunit of C. elegans NAC (natural protein)
chain: MDSKAIAERIKKLQAQQEHVRIGGKGTPRRKKKVIHKTAAADDKKLQSNLKKLSVTNIPGIEEVNMIKDDGTVIHFNNPKVQTSVPANTFSVTGSADNKQITEMLPGILNQLGPESLTHLKKLANNVTKLGPDGKGEDEDVPELVGDFDAASKNETKADEQ

From article PMC5986199
